Experimental data reported in publication PMC4233993, “Comparison of three tannases cloned from closely related lactobacillus species: L. Plantarum, L. Paraplantarum, and L. Pentosus” (BMC Microbiology, 2014).

Key:
Assay in all cases: HPLC of reaction products, Hanes-Woolf plot
Details in all cases: 50 mM Tris-HCl pH 8.0, 37°C, 33 nM enzyme
[1] = tested on: T1, COc1cc(C(=O)O[C@@H]2Cc3c(O)cc(O)cc3O[C@@H]2c2cc(O)c(O)c(O)c2)cc(O)c1O; type: biochemical, Lactiplantibacillus paraplantarum
T1 construct: full ORF (1410 bp, 469 residues, 50,708 Da), C-terminal His tag, fused to YbdK signal peptide in pBE-S, expressed in Bacillus subtilis RIK 1285, purified from cells
Excerpt: (§1) HPLC of reaction products, Hanes-Woolf plot on TanLpa

COC(=O)c1cc(O)c(O)c(O)c1 [2] = tested on: T2, COC(=O)c1cc(O)c(O)c(O)c1; type: biochemical, Lactiplantibacillus paraplantarum
T2 construct: full ORF (1410 bp, 469 residues, 50,708 Da), C-terminal His tag, fused to YbdK signal peptide in pBE-S, expressed in Bacillus subtilis RIK 1285, purified from cells
Excerpt: as §1

[3] = tested on: T3, O=C(O[C@@H]1Cc2c(O)cc(O)cc2O[C@@H]1c1ccc(O)c(O)c1)c1cc(O)c(O)c(O)c1; type: biochemical, Lactiplantibacillus paraplantarum
T3 construct: full ORF (1410 bp, 469 residues, 50,708 Da), C-terminal His tag, fused to YbdK signal peptide in pBE-S, expressed in Bacillus subtilis RIK 1285, purified from cells
Excerpt: as §1

[4] = tested on: T4, O=C(O[C@@H]1Cc2c(O)cc(O)cc2O[C@H]1c1ccc(O)c(O)c1)c1cc(O)c(O)c(O)c1; type: biochemical, Lactiplantibacillus paraplantarum
T4 construct: full ORF (1410 bp, 469 residues, 50,708 Da), C-terminal His tag, fused to YbdK signal peptide in pBE-S, expressed in Bacillus subtilis RIK 1285, purified from cells
Excerpt: as §1

[5] = tested on: T5, O=C(O[C@@H]1Cc2c(O)cc(O)cc2O[C@H]1c1cc(O)c(O)c(O)c1)c1cc(O)c(O)c(O)c1; type: biochemical, Lactiplantibacillus paraplantarum
T5 construct: full ORF (1410 bp, 469 residues, 50,708 Da), C-terminal His tag, fused to YbdK signal peptide in pBE-S, expressed in Bacillus subtilis RIK 1285, purified from cells
Excerpt: as §1

[6] = tested on: T6, O=C(O[C@@H]1Cc2c(O)cc(O)cc2O[C@@H]1c1cc(O)c(O)c(O)c1)c1cc(O)c(O)c(O)c1; type: biochemical, Lactiplantibacillus paraplantarum
T6 construct: full ORF (1410 bp, 469 residues, 50,708 Da), C-terminal His tag, fused to YbdK signal peptide in pBE-S, expressed in Bacillus subtilis RIK 1285, purified from cells
Excerpt: as §1

[7] = tested on: T7, COc1cc(C(=O)O[C@@H]2Cc3c(O)cc(O)cc3O[C@@H]2c2cc(O)c(O)c(O)c2)cc(O)c1O; type: biochemical, Lactiplantibacillus pentosus
T7 construct: full ORF (1413 bp, 470 residues, 51,193 Da), C-terminal His tag, fused to YbdK signal peptide in pBE-S, expressed in Bacillus subtilis RIK 1285, purified from cells
Excerpt: (§2) HPLC of reaction products, Hanes-Woolf plot on TanLpe

[8] = tested on: T8, O=C(O[C@@H]1Cc2c(O)cc(O)cc2O[C@@H]1c1cc(O)c(O)c(O)c1)c1cc(O)c(O)c(O)c1; type: biochemical, Lactiplantibacillus pentosus
T8 construct: full ORF (1413 bp, 470 residues, 51,193 Da), C-terminal His tag, fused to YbdK signal peptide in pBE-S, expressed in Bacillus subtilis RIK 1285, purified from cells
Excerpt: as §2

COC(=O)c1cc(O)c(O)c(O)c1 [9] = tested on: T9, COC(=O)c1cc(O)c(O)c(O)c1; type: biochemical, Lactiplantibacillus pentosus
T9 construct: full ORF (1413 bp, 470 residues, 51,193 Da), C-terminal His tag, fused to YbdK signal peptide in pBE-S, expressed in Bacillus subtilis RIK 1285, purified from cells
Excerpt: as §2

[10] = tested on: T10, O=C(O[C@@H]1Cc2c(O)cc(O)cc2O[C@H]1c1ccc(O)c(O)c1)c1cc(O)c(O)c(O)c1; type: biochemical, Lactiplantibacillus pentosus
T10 construct: full ORF (1413 bp, 470 residues, 51,193 Da), C-terminal His tag, fused to YbdK signal peptide in pBE-S, expressed in Bacillus subtilis RIK 1285, purified from cells
Excerpt: as §2

[11] = tested on: T11, O=C(O[C@@H]1Cc2c(O)cc(O)cc2O[C@H]1c1cc(O)c(O)c(O)c1)c1cc(O)c(O)c(O)c1; type: biochemical, Lactiplantibacillus pentosus
T11 construct: full ORF (1413 bp, 470 residues, 51,193 Da), C-terminal His tag, fused to YbdK signal peptide in pBE-S, expressed in Bacillus subtilis RIK 1285, purified from cells
Excerpt: as §2

[12] = tested on: T12, O=C(O[C@@H]1Cc2c(O)cc(O)cc2O[C@@H]1c1ccc(O)c(O)c1)c1cc(O)c(O)c(O)c1; type: biochemical, Lactiplantibacillus pentosus
T12 construct: full ORF (1413 bp, 470 residues, 51,193 Da), C-terminal His tag, fused to YbdK signal peptide in pBE-S, expressed in Bacillus subtilis RIK 1285, purified from cells
Excerpt: as §2

[13] = substrate: COc1cc(C(=O)O[C@@H]2Cc3c(O)cc(O)cc3O[C@@H]2c2cc(O)c(O)c(O)c2)cc(O)c1O; type: biochemical, Lactiplantibacillus plantarum
Excerpt: (§3) HPLC of reaction products, Hanes-Woolf plot on TanLpl

[14] = substrate: O=C(O[C@@H]1Cc2c(O)cc(O)cc2O[C@H]1c1ccc(O)c(O)c1)c1cc(O)c(O)c(O)c1; type: biochemical, Lactiplantibacillus plantarum
Excerpt: as §3

[15] = substrate: O=C(O[C@@H]1Cc2c(O)cc(O)cc2O[C@@H]1c1ccc(O)c(O)c1)c1cc(O)c(O)c(O)c1; type: biochemical, Lactiplantibacillus plantarum
Excerpt: as §3

[16] = substrate: COC(=O)c1cc(O)c(O)c(O)c1; type: biochemical, Lactiplantibacillus plantarum
Excerpt: as §3

[17] = substrate: O=C(O[C@@H]1Cc2c(O)cc(O)cc2O[C@@H]1c1cc(O)c(O)c(O)c1)c1cc(O)c(O)c(O)c1; type: biochemical, Lactiplantibacillus plantarum
Excerpt: as §3

[18] = substrate: O=C(O[C@@H]1Cc2c(O)cc(O)cc2O[C@H]1c1cc(O)c(O)c(O)c1)c1cc(O)c(O)c(O)c1; type: biochemical, Lactiplantibacillus plantarum
Excerpt: as §3

## TanLpa (Lactiplantibacillus paraplantarum)
[1]
  Km: 40 ± 4 µM
  kcat: 0.35 ± 0.07 s⁻¹
  kcat/Km: 9020 ± 2280 M⁻¹ s⁻¹
COC(=O)c1cc(O)c(O)c(O)c1 [2]
  Km: 500 ± 60 µM
  kcat: 72.73 ± 3.34 s⁻¹
  kcat/Km: 145000 ± 10600 M⁻¹ s⁻¹
[3]
  Km: 60 ± 10 µM
  kcat: 11.08 ± 0.44 s⁻¹
  kcat/Km: 195000 ± 21500 M⁻¹ s⁻¹
[4]
  Km: 50 ± 5 µM
  kcat: 8.1 ± 0.04 s⁻¹
  kcat/Km: 182000 ± 27700 M⁻¹ s⁻¹
[5]
  Km: 60 ± 2 µM
  kcat: 9.2 ± 0.09 s⁻¹
  kcat/Km: 155000 ± 7970 M⁻¹ s⁻¹
[6]
  Km: 60 ± 10 µM
  kcat: 14.29 ± 0.82 s⁻¹
  kcat/Km: 261000 ± 46500 M⁻¹ s⁻¹

## TanLpe (Lactiplantibacillus pentosus)
[7]
  Km: 5 ± 0.9 µM
  kcat: 0.06 ± 0.02 s⁻¹
  kcat/Km: 10600 ± 1330 M⁻¹ s⁻¹
[8]
  Km: 60 ± 20 µM
  kcat: 0.44 ± 0.02 s⁻¹
  kcat/Km: 7250 ± 2510 M⁻¹ s⁻¹
COC(=O)c1cc(O)c(O)c(O)c1 [9]
  Km: 870 ± 410 µM
  kcat: 15.95 ± 3.13 s⁻¹
  kcat/Km: 18800 ± 3080 M⁻¹ s⁻¹
[10]
  Km: 80 ± 4 µM
  kcat: 1.48 ± 0.11 s⁻¹
  kcat/Km: 19200 ± 2360 M⁻¹ s⁻¹
[11]
  Km: 70 ± 2 µM
  kcat: 1.12 ± 0.13 s⁻¹
  kcat/Km: 14300 ± 1950 M⁻¹ s⁻¹
[12]
  Km: 50 ± 10 µM
  kcat: 0.42 ± 0.03 s⁻¹
  kcat/Km: 8630 ± 1170 M⁻¹ s⁻¹

B1: TanLpl (Lactiplantibacillus plantarum) (protein)
chain: MSNRLIFDADWLVPEQVQVAGQAIQYYAARNIQYVQHPVAAIQVLNVFVPAAYLHGSSVNGYQRATAPILMPNTVGGYLPGPADDPQRVTWPTNAGTIQQALKRGYVVVAAGIRGRTTVDKSGQRVGQAPAFIVDMKAAIRYVKYNQGRLPGDANRIITNGTSAGGATSALAGASGNSAYFEPALTALGAAPATDDIFAVSAYCPIHNLEHADMAYEWQFNGINDWHRYQPVAGTTKNGRPKFEPVSGQLTVEEQALSLALKAQFSTYLNQLKLTASDGTHLTLNEAGMGSFRDVVRQLLISSAQTAFDQGTDIHKYAGFVVTGNQVTDLDLSAYLKSLTRMKAVPAFDQLDLTSPENNLFGDATAKAKHFTALAQTRSTVTAQLADAELIQAINPLSYLTTTSSQVAKHWRIRHGAADRDTSFAIPIILAIMLENHGYGIDFALPWDIPHSGDYDLGDLFSWIDGLCQ
notes: full ORF (469 residues, ~50 kDa), C-terminal His tag, fused to YbdK signal peptide in pBE-S, expressed in Bacillus subtilis RIK 1285, purified from cells
[13]
  Km: 40 ± 9 µM
  kcat: 0.26 ± 0.04 s⁻¹
  kcat/Km: 6040 ± 570 M⁻¹ s⁻¹
[14]
  Km: 50 ± 2 µM
  kcat: 2.41 ± 0.10 s⁻¹
  kcat/Km: 53600 ± 4620 M⁻¹ s⁻¹
[15]
  Km: 30 ± 20 µM
  kcat: 1.49 ± 0.19 s⁻¹
  kcat/Km: 52200 ± 25600 M⁻¹ s⁻¹
[16]
  Km: 370 ± 40 µM
  kcat: 46.02 ± 0.87 s⁻¹
  kcat/Km: 125000 ± 15400 M⁻¹ s⁻¹
[17]
  Km: 100 ± 10 µM
  kcat: 1.12 ± 0.03 s⁻¹
  kcat/Km: 11700 ± 1290 M⁻¹ s⁻¹
[18]
  Km: 30 ± 8 µM
  kcat: 0.89 ± 0.044 s⁻¹
  kcat/Km: 27200 ± 6280 M⁻¹ s⁻¹
